# Reference: paper PMC5776092
# Molecular target: cysteine deficient variant of the human neuropeptide Y receptor type 2 (Y2R), refolded and reconstituted into DMPC/DHPC-c7 bicelles (human) (UniProt P49146)
substance,measurement,value
pre-assembled Gαi1β1γ1 heterotrimer (from UniProt P10824 1-354; P62871 1-340; P02698 1-74) (complex),"apparent GTPγS binding rate k of Gαi1 (intrinsic W211 tryptophan fluorescence, nucleotide exchange), Y2R in isotropic bicelles activated with 10 fold excess of NPY, 16°C",0.06 s⁻¹
same,"apparent GTPγS binding rate k of Gαi1 (intrinsic W211 tryptophan fluorescence, nucleotide exchange), Y2R in non-isotropic bicelles activated with 10 fold excess of NPY, 16°C",0.045 s⁻¹
